B1: A40.I35 (bispecific antibody)
NKG2D-binding VH: QVQLQQWGAGLLKPSETLSLTCAVYGGSFSGYYWSWIRQPPGKGLEWIGEIDHSGSTNYNPSLKSRVTISVDTSKNQFSLKLSSVTAADTAVYYCARARGPWSFDPWGQGTLVTVSS
NKG2D-binding VL: DIQMTQSPSTLSASVGDRVTITCRASQSIGSWLAWYQQKPGKAPKLLIYKASSLESGVPSRFSGSGSGTEFTLTISSLQPDDFATYYCQQYHSFYTFGGGTKVEIK
CD33-binding VH: QLQLQESGPGLVKPSETLSLTCTVSGGSISSTDYYWGWIRQPPGKGLEWIGSIGYSGTYYNPSLKSRVTISVDTSKNQFSLKLSSVTAADTAVYYCARETAHDVHGMDVWGQGTTVTVSS
CD33-binding VL: EIVLTQSPATLSLSPGERATLSCRASHSVYSYLAWYQQKPGQAPRLLIYDASNRATGIPARFSGSGSGTDFTLTISSLEPEDFAVYYCQQYDNLPTFGGGTKVEIK
B2: A49.H76 (bispecific antibody)
NKG2D-binding VH: EVQLVESGGGLVKPGGSLRLSCAASGFTFSSYSMNWVRQAPGKGLEWVSSISSSSSYIYYADSVKGRFTISRDNAKNSLYLQMNSLRAEDTAVYYCARGAPMGAAAGWFDPWGQGTLVTVSS
NKG2D-binding VL: DIQMTQSPSSVSASVGDRVTITCRASQGISSWLAWYQQKPGKAPKLLIYAASSLQSGVPSRFSGSGSGTDFTLTISSLQPEDFATYYCQQGVSFPRTFGGGTKVEIK
CD33-binding VH: EVQLLESGGGLVQPGGSLRLSCAASGFTFSKYTMSWVRQAPGKGLEWVSAIVGSGESTYFADSVKGRFTISRDNSKNTLYLQMNSLRAEDTAVYYCAREGGPYYDSSGYFVYYGMDVWGQGTTVTVSS
CD33-binding VL: DIQMTQSPSTLSASVGDRVTITCRASQSISSWLAWYQQKPGKAPKLLIYKASSLESGVPSRFSGSGSGTEFTLTISSLQPDDFATYYCQQYDDLPTFGGGTKVEIK
B3: A44.I35 (bispecific antibody)
NKG2D-binding VH: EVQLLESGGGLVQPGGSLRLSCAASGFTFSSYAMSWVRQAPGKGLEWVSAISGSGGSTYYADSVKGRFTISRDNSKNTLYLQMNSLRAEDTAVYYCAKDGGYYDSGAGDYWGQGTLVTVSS
NKG2D-binding VL: DIQMTQSPSSVSASVGDRVTITCRASQGIDSWLAWYQQKPGKAPKLLIYAASSLQSGVPSRFSGSGSGTDFTLTISSLQPEDFATYYCQQGVSYPRTFGGGTKVEIK
CD33-binding VH: QLQLQESGPGLVKPSETLSLTCTVSGGSISSTDYYWGWIRQPPGKGLEWIGSIGYSGTYYNPSLKSRVTISVDTSKNQFSLKLSSVTAADTAVYYCARETAHDVHGMDVWGQGTTVTVSS
CD33-binding VL: EIVLTQSPATLSLSPGERATLSCRASHSVYSYLAWYQQKPGQAPRLLIYDASNRATGIPARFSGSGSGTDFTLTISSLEPEDFAVYYCQQYDNLPTFGGGTKVEIK
B4: A44.G59 (bispecific antibody)
NKG2D-binding VH: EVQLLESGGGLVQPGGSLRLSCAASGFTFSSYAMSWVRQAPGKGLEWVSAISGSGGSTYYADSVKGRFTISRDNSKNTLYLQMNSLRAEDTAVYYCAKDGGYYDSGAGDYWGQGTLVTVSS
NKG2D-binding VL: DIQMTQSPSSVSASVGDRVTITCRASQGIDSWLAWYQQKPGKAPKLLIYAASSLQSGVPSRFSGSGSGTDFTLTISSLQPEDFATYYCQQGVSYPRTFGGGTKVEIK
CD33-binding VH: EVQLVESGGGLVQPGGSLRLSCAASGFTFSSYGMSWVRQAPGKGLEWVANIKQDGSEKYYVDSVKGRFTISRDNAKNSLYLQMNSLRAEDTAVYYCAREGGPYYDSSGYFVYYGMDVWGQGTTVTVSS
CD33-binding VL: DIQMTQSPSTLSASVGDRVTITCRASQSISSWLAWYQQKPGKAPKLLIYDASSLESGVPSRFSGSGSGTEFTLTISSLQPDDFATYYCQQYESFPTFGGGTKVEIK
B5: A49.G59 (bispecific antibody)
NKG2D-binding VH: EVQLVESGGGLVKPGGSLRLSCAASGFTFSSYSMNWVRQAPGKGLEWVSSISSSSSYIYYADSVKGRFTISRDNAKNSLYLQMNSLRAEDTAVYYCARGAPMGAAAGWFDPWGQGTLVTVSS
NKG2D-binding VL: DIQMTQSPSSVSASVGDRVTITCRASQGISSWLAWYQQKPGKAPKLLIYAASSLQSGVPSRFSGSGSGTDFTLTISSLQPEDFATYYCQQGVSFPRTFGGGTKVEIK
CD33-binding VH: EVQLVESGGGLVQPGGSLRLSCAASGFTFSSYGMSWVRQAPGKGLEWVANIKQDGSEKYYVDSVKGRFTISRDNAKNSLYLQMNSLRAEDTAVYYCAREGGPYYDSSGYFVYYGMDVWGQGTTVTVSS
CD33-binding VL: DIQMTQSPSTLSASVGDRVTITCRASQSISSWLAWYQQKPGKAPKLLIYDASSLESGVPSRFSGSGSGTEFTLTISSLQPDDFATYYCQQYESFPTFGGGTKVEIK
B6: A49.I35 (bispecific antibody)
NKG2D-binding VH: EVQLVESGGGLVKPGGSLRLSCAASGFTFSSYSMNWVRQAPGKGLEWVSSISSSSSYIYYADSVKGRFTISRDNAKNSLYLQMNSLRAEDTAVYYCARGAPMGAAAGWFDPWGQGTLVTVSS
NKG2D-binding VL: DIQMTQSPSSVSASVGDRVTITCRASQGISSWLAWYQQKPGKAPKLLIYAASSLQSGVPSRFSGSGSGTDFTLTISSLQPEDFATYYCQQGVSFPRTFGGGTKVEIK
CD33-binding VH: QLQLQESGPGLVKPSETLSLTCTVSGGSISSTDYYWGWIRQPPGKGLEWIGSIGYSGTYYNPSLKSRVTISVDTSKNQFSLKLSSVTAADTAVYYCARETAHDVHGMDVWGQGTTVTVSS
CD33-binding VL: EIVLTQSPATLSLSPGERATLSCRASHSVYSYLAWYQQKPGQAPRLLIYDASNRATGIPARFSGSGSGTDFTLTISSLEPEDFAVYYCQQYDNLPTFGGGTKVEIK
B7: A44.H76 (bispecific antibody)
NKG2D-binding VH: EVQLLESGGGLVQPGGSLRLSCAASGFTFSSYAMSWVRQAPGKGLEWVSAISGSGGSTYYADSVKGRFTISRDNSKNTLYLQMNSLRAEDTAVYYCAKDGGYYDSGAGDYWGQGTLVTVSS
NKG2D-binding VL: DIQMTQSPSSVSASVGDRVTITCRASQGIDSWLAWYQQKPGKAPKLLIYAASSLQSGVPSRFSGSGSGTDFTLTISSLQPEDFATYYCQQGVSYPRTFGGGTKVEIK
CD33-binding VH: EVQLLESGGGLVQPGGSLRLSCAASGFTFSKYTMSWVRQAPGKGLEWVSAIVGSGESTYFADSVKGRFTISRDNSKNTLYLQMNSLRAEDTAVYYCAREGGPYYDSSGYFVYYGMDVWGQGTTVTVSS
CD33-binding VL: DIQMTQSPSTLSASVGDRVTITCRASQSISSWLAWYQQKPGKAPKLLIYKASSLESGVPSRFSGSGSGTEFTLTISSLQPDDFATYYCQQYDDLPTFGGGTKVEIK
B8: C26.I07 (bispecific antibody)
NKG2D-binding VH: QVQLQQWGAGLLKPSETLSLTCAVYGGSFSGYYWSWIRQPPGKGLEWIGEIDHSGSTNYNPSLKSRVTISVDTSKNQFSLKLSSVTAADTAVYYCARARGPWSFDPWGQGTLVTVSS
NKG2D-binding VL: DIQMTQSPSTLSASVGDRVTITCRASQSISSWLAWYQQKPGKAPKLLIYKASSLESGVPSRFSGSGSGTEFTLTISSLQPDDFATYYCQQYGSFPITFGGGTKVEIK
CD33-binding VH: EVQLVESGGGLVQPGGSLRLSCAASGFTFGSYWMSWVRQAPGKGLEWVATIKQDGSEKSYVDSVKGRFTISRDNAKNSLYLQMNSLRAEDTAVYYCARPLNAGELDVWGQGTMVTVSS
CD33-binding VL: DIQMTQSPSTLSASVGDRVTITCRASQSISSWLAWYQQKPGKAPKLLIYEASSLESGVPSRFSGSGSGTEFTLTISSLQPDDFATYYCQQSQSYPPITFGGGTKVEIK
B9: C26.H76 (bispecific antibody)
NKG2D-binding VH: QVQLQQWGAGLLKPSETLSLTCAVYGGSFSGYYWSWIRQPPGKGLEWIGEIDHSGSTNYNPSLKSRVTISVDTSKNQFSLKLSSVTAADTAVYYCARARGPWSFDPWGQGTLVTVSS
NKG2D-binding VL: DIQMTQSPSTLSASVGDRVTITCRASQSISSWLAWYQQKPGKAPKLLIYKASSLESGVPSRFSGSGSGTEFTLTISSLQPDDFATYYCQQYGSFPITFGGGTKVEIK
CD33-binding VH: EVQLLESGGGLVQPGGSLRLSCAASGFTFSKYTMSWVRQAPGKGLEWVSAIVGSGESTYFADSVKGRFTISRDNSKNTLYLQMNSLRAEDTAVYYCAREGGPYYDSSGYFVYYGMDVWGQGTTVTVSS
CD33-binding VL: DIQMTQSPSTLSASVGDRVTITCRASQSISSWLAWYQQKPGKAPKLLIYKASSLESGVPSRFSGSGSGTEFTLTISSLQPDDFATYYCQQYDDLPTFGGGTKVEIK
B10: C26.G59 (bispecific antibody)
NKG2D-binding VH: QVQLQQWGAGLLKPSETLSLTCAVYGGSFSGYYWSWIRQPPGKGLEWIGEIDHSGSTNYNPSLKSRVTISVDTSKNQFSLKLSSVTAADTAVYYCARARGPWSFDPWGQGTLVTVSS
NKG2D-binding VL: DIQMTQSPSTLSASVGDRVTITCRASQSISSWLAWYQQKPGKAPKLLIYKASSLESGVPSRFSGSGSGTEFTLTISSLQPDDFATYYCQQYGSFPITFGGGTKVEIK
CD33-binding VH: EVQLVESGGGLVQPGGSLRLSCAASGFTFSSYGMSWVRQAPGKGLEWVANIKQDGSEKYYVDSVKGRFTISRDNAKNSLYLQMNSLRAEDTAVYYCAREGGPYYDSSGYFVYYGMDVWGQGTTVTVSS
CD33-binding VL: DIQMTQSPSTLSASVGDRVTITCRASQSISSWLAWYQQKPGKAPKLLIYDASSLESGVPSRFSGSGSGTEFTLTISSLQPDDFATYYCQQYESFPTFGGGTKVEIK
B11: F47.I35 (bispecific antibody)
NKG2D-binding VH: QVQLQQWGAGLLKPSETLSLTCAVYGGSFSGYYWSWIRQPPGKGLEWIGEIDHSGSTNYNPSLKSRVTISVDTSKNQFSLKLSSVTAADTAVYYCARARGPWSFDPWGQGTLVTVSS
NKG2D-binding VL: DIQMTQSPSTLSASVGDRVTITCRASQSISSWLAWYQQKPGKAPKLLIYKASSLESGVPSRFSGSGSGTEFTLTISSLQPDDFATYYCQQYDTFITFGGGTKVEIK
CD33-binding VH: QLQLQESGPGLVKPSETLSLTCTVSGGSISSTDYYWGWIRQPPGKGLEWIGSIGYSGTYYNPSLKSRVTISVDTSKNQFSLKLSSVTAADTAVYYCARETAHDVHGMDVWGQGTTVTVSS
CD33-binding VL: EIVLTQSPATLSLSPGERATLSCRASHSVYSYLAWYQQKPGQAPRLLIYDASNRATGIPARFSGSGSGTDFTLTISSLEPEDFAVYYCQQYDNLPTFGGGTKVEIK
B12: A44.I07 (bispecific antibody)
NKG2D-binding VH: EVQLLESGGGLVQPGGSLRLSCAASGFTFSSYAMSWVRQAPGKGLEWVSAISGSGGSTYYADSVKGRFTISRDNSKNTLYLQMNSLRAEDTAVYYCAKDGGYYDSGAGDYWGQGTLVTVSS
NKG2D-binding VL: DIQMTQSPSSVSASVGDRVTITCRASQGIDSWLAWYQQKPGKAPKLLIYAASSLQSGVPSRFSGSGSGTDFTLTISSLQPEDFATYYCQQGVSYPRTFGGGTKVEIK
CD33-binding VH: EVQLVESGGGLVQPGGSLRLSCAASGFTFGSYWMSWVRQAPGKGLEWVATIKQDGSEKSYVDSVKGRFTISRDNAKNSLYLQMNSLRAEDTAVYYCARPLNAGELDVWGQGTMVTVSS
CD33-binding VL: DIQMTQSPSTLSASVGDRVTITCRASQSISSWLAWYQQKPGKAPKLLIYEASSLESGVPSRFSGSGSGTEFTLTISSLQPDDFATYYCQQSQSYPPITFGGGTKVEIK
B13: A49.I07 (bispecific antibody)
NKG2D-binding VH: EVQLVESGGGLVKPGGSLRLSCAASGFTFSSYSMNWVRQAPGKGLEWVSSISSSSSYIYYADSVKGRFTISRDNAKNSLYLQMNSLRAEDTAVYYCARGAPMGAAAGWFDPWGQGTLVTVSS
NKG2D-binding VL: DIQMTQSPSSVSASVGDRVTITCRASQGISSWLAWYQQKPGKAPKLLIYAASSLQSGVPSRFSGSGSGTDFTLTISSLQPEDFATYYCQQGVSFPRTFGGGTKVEIK
CD33-binding VH: EVQLVESGGGLVQPGGSLRLSCAASGFTFGSYWMSWVRQAPGKGLEWVATIKQDGSEKSYVDSVKGRFTISRDNAKNSLYLQMNSLRAEDTAVYYCARPLNAGELDVWGQGTMVTVSS
CD33-binding VL: DIQMTQSPSTLSASVGDRVTITCRASQSISSWLAWYQQKPGKAPKLLIYEASSLESGVPSRFSGSGSGTEFTLTISSLQPDDFATYYCQQSQSYPPITFGGGTKVEIK

T1 sequence (P20138 18-364): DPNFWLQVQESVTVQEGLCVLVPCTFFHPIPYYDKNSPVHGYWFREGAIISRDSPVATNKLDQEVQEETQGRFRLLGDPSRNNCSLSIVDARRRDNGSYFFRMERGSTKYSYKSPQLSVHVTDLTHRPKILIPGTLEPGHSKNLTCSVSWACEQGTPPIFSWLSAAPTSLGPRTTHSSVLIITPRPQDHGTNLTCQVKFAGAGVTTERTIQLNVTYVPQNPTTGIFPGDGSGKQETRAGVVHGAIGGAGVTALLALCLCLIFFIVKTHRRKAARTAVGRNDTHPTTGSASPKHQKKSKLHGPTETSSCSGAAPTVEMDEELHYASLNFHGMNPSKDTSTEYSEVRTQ

This experiment addresses T1, human CD33 expressed on cells (human, UniProt P20138 18-364).
T1 construct: endogenous CD33 of human AML cell lines and blood monocytes; also called cell-expressed CD33 (Molm-13, Mv4-11, monocytes)
Kind of experiment: flow cytometry on Molm-13 cells, fluorophore-conjugated anti-human IgG secondary antibody, MFI as fold over background (FOB).
Experimental: Binding of the TriNKET was detected using a fluorophore conjugated anti-human IgG secondary antibody. Cells were analyzed by flow cytometry, binding MFI to cell expressed CD33 was normalized to secondary antibody controls to obtain fold over background values.
B1: the binding result is listed as “binds”. As to B2, the binding result was “binds”. On to B3, for which the binding result is “binds”. Regarding B4, the binding result was “binds”. As to B5, the binding result is “binds”. B6: the binding result is “binds”. On to B7, for which the binding result is recorded as “binds”. On to B8, for which the binding result is “binds”.

On to B9, for which the binding result is reported as “binds”. B10: the binding result is “binds”. For the molecule B11, the binding result is “binds”. Next, B12: “binds”; B13: “binds”.

(Values after US20220380459A1 (DRAGONFLY THERAPEUTICS, published 2022).)
